Reference: patent US20090291088A1, “THERAPEUTIC COMBINATIONS OF ANTI-IGF-1R ANTIBODIES AND OTHER COMPOUNDS” (Biogen Idec MA Inc., priority 2008, published 2009)
Read-outs that look alike come from different tables or passages of the source.

Tests used:
[1] = molecular target: T1, IGF-1R phosphorylation (Homo sapiens, UniProt P08069); test: Inhibition of IGF-1 and IGF-2 mediated IGF-1R phosphorylation in MCF-7 cells (ELISA); format: cell-based; settings: for Inhibition of IGF-1R Phosphorylation IGF-1 / Inhibition of IGF-1R Phosphorylation IGF-2: Fabs, MCF-7; for Inhibition of IGF-1R Phosphorylation IGF-1: IGF-1 stimulated; for Inhibition of IGF-1R Phosphorylation IGF-2: IGF-2 stimulated; for Inhibition of IGF-1R.pTyr IGF-1 / Inhibition of IGF-1R.pTyr IGF-2: murine monoclonal antibodies
T1 construct: wild type IGF-1R expressed on MCF-7 tumor cells; endogenous in cells; host or cells: MCF-7
How it was run: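 Serum-starved MCF-7 cells were preincubated 1 h with antibodies (Fabs at 200, 20, 2 nM; mAbs at 67, 6.7, 0.67 nM) at room temperature or 37 °C, then stimulated with IGF-1 or IGF-2. Phospho-IGF-1R in lysates was captured by ELISA and detected with anti-phosphotyrosine 4G10 (OD450); % inhibition over ligand control.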

[2] = molecular target: T2, IGF-1R expressed on MCF-7 cells (Homo sapiens, UniProt P08069); test: Flow cytometry binding to wild type IGF-1R on MCF-7 tumor cells
T2 construct: wild type IGF-1R expressed on MCF-7 tumor cells; endogenous in cells; host or cells: MCF-7
Procedure: The ability of Fabs to bind to the wild type IGF-1R was determined by flowcytometry using MCF-7 tumor cell line.
MCF-7 cells (Human Breast Adenocarcinoma from NCI) were split 24 hours prior to the setup of the assay to obtain 70% confluent monolayer. Routinely, MCF-7 cell line was maintained within 20 passages. Cells were lifted with cell dissociation buffer (Gibco catalog #13151-014), counted, washed and adjusted to 1×10^6 cells/ml and one ml of cells were then added to each tube (12×75 mm tube Falcon catalog# 352054). Cells were pelleted and supernatant removed by centrifugation at 1200 rpm for 5 min and 100 μl of diluted antibodies were then added to the cell pellet. Purified Fabs were tested at a starting concentration of either 210 or 60 μg/ml with 1:3 dilutions in FACS buffer, down to 0.001 μg/ml. FACS buffer used throughout the assay was PBS (without Ca++/Mg++) containing 1% BSA (Sigma catalog# A-7906; Sigma-Aldrich Corp. (St. Louis, Mo., USA)) and 0.1% Sodium Azide (Sigma catalog #S2002). As a positive control IR3 a murine antibody (Ab-1; Calbiochem #GR11L) was used. Samples were allowed to incubate on ice for 1 hour and 15 minutes then were washed with 2 ml FACS buffer and centrifuged at 1200 rpm for 5 minutes at 4° C. The supernatant was aspirated and 100 μl of the secondary detection antibody was added to each corresponding tube in FACS buffer. Samples were then incubated for 30 minutes on ice, in the dark. Cells were washed as described above, then, re-suspended in […] FACS buffer per tube/sample.
Cells were stained for live cell determination with Propidium Iodide staining solution (PI for dead cell exclusion; BD Pharmingen catalog# 51-66211E or 556463; use at 1:500 final in FACS buffer). […]
Once samples have been run and geometric means determined, antibody concentration (X axis) vs. geometric mean (Y axis) was graphed to the log 10, using Graphpad Prism (Prism Graph) graphing program. […]
The binding activity of human antibodies to wild type IGF-1R expressed on tumor cells was determined by flow cytometry. […]

[3] = murine monoclonal antibodies, read-out: Binding (EC50nM) Tumor MCF-7

| Molecule | Inhibition of IGF-1R Phosphorylation IGF-1 [1] | Inhibition of IGF-1R Phosphorylation IGF-2 [1] | EC50 ([2]; purified Fabs, read-out: FACS Binding MCF-7 EC50nM) [nM] | Inhibition of IGF-1R.pTyr IGF-1 [1] | Inhibition of IGF-1R.pTyr IGF-2 [1] | EC50 [2, 3] [nM] |
| --- | --- | --- | --- | --- | --- | --- |
| Fab M12-E01: human anti-human IGF-1R Fab from phage display library; VH SEQ ID NO:4, VL SEQ ID NO:68 (antibody, V domains shown, Antibody variable heavy chain sequence; Antibody variable light chain sequence) VH: EVQLLESGGGLVQPGGSLRLSCAASGFTFSPYSMLWVRQAPGKGLEWVSSIGSSGGSTRYADSVKGRFTISRDNSKNTLYLQMNSLRAEDTAMYYCARVRGILHYDILIGRNLYYYYMDVWGKGTTVTVSS VL: QYELTQPPSVSEAPRQRVTISCSGSSSNIGNNAINWYQQLPGKPPKLLIYYDDLLPSGVSDRFSGSKSGTSGSLAISGLQSEDEADYYCAAWDDNLNGVIFGGGTKLTVL | ++ (>30%@1ug/ml) | + (>30%@10 ug/ml) | 7.4 | – | – | – |
| M14-C03: anti-IGF-1R antibody, allosteric blocker of IGF-1 and IGF-2 (antibody, V domains shown, Antibody variable heavy chain sequence; Antibody variable light chain sequence) VH: EVQLLESGGGLVQPGGSLRLSCAASGFTFSKYMMSWVRQAPGKGLEWVSYISPSGGLTWYADSVKGRFTISRDNSKNTLYLQMNSLRAEDTAVYYCARDGARGYGMDVWGQGTTVTVSS VL: DIQMTQSPATLSLSPGERATLSCRASQSVSSYLAWYQQKPGQAPRLLIYDASNRATGIPARFSGSGSGTDFTLTISSLEPEDFAVYYCQQRSNWPPEVTFGPGTKVDIK | ++ (>30%@1ug/ml) | ++ (>30%@1ug/ml) | – | – | – | – |
| 20C8.3B8: murine anti-human IGF-1R monoclonal antibody from hybridoma; VH SEQ ID NO:43, VL SEQ ID NO:103 (antibody, V domains shown, Antibody variable heavy chain sequence; Antibody variable light chain sequence) VH: DVQLQESGPDLVKPSQSLSLTCTVTGYSITSGYSWHWIRQFPGNKLEWMGYIHYSGGTNYNPSLKSRISITRDTSKNQFFLQLNSVTTEDTATYYCARSGYGYRSAYYFDYWGQGTTVTVSS VL: DIVLTQSPASLAVSLGQRATISCRASKSVSTSAYSYMHWYQQKPGQPPKLLIYLASNLESGVPARFSGSGSGTDFTLNIHPVEEEDAATYYCQHSRELPYTFGGGTKLEIK | – | – | – | +++ (>30%@0.1 μg/ml) | ++ (>30%@1 μg/ml) | 1.23 |
| 20D8.24B11: murine anti-human IGF-1R monoclonal antibody from hybridoma; VH SEQ ID NO:53, VL SEQ ID NO:103 (antibody, V domains shown, Antibody variable heavy chain sequence; Antibody variable light chain sequence) VH: DVQLQESGPDLVKPSQSLSLTCTVTGYSITSGYSWHWIRQFPGNKLEWMGYIHYSGGTNYNPSLKSRISITRDTSKNQFFLQLNSVTTEDTATYYCARSGYGYRSAYYFDYWGQGTTLTVSS VL: DIVLTQSPASLAVSLGQRATISCRASKSVSTSAYSYMHWYQQKPGQPPKLLIYLASNLESGVPARFSGSGSGTDFTLNIHPVEEEDAATYYCQHSRELPYTFGGGTKLEIK | – | – | – | +++ (>30%@0.1 μg/ml) | ++ (>30%@1 μg/ml) | 1.3 |
